Measured values from US20210070829A1.

Molecular target: FGFR/β-Klotho receptor complex
Test: cell-based or functional assay

FGF21 activity EC50 (luciferase reporter): 120 pM
Substance: Native FGF21 (from UniProt Q9NSA1 29-209) (ligand)
